From patent publication US20230250188A1 (NATIONAL UNIVERSITY CORPORATION KOCHI UNIVERSITY, published 2023)

Assays:
[1] = biological target: T1, human GPC1 on the surface of GPC1-positive cancer cells (TE8, TE14, BxPC-3) (human, UniProt P35052 24-530); assay: cell-based or functional assay
T1 sequence: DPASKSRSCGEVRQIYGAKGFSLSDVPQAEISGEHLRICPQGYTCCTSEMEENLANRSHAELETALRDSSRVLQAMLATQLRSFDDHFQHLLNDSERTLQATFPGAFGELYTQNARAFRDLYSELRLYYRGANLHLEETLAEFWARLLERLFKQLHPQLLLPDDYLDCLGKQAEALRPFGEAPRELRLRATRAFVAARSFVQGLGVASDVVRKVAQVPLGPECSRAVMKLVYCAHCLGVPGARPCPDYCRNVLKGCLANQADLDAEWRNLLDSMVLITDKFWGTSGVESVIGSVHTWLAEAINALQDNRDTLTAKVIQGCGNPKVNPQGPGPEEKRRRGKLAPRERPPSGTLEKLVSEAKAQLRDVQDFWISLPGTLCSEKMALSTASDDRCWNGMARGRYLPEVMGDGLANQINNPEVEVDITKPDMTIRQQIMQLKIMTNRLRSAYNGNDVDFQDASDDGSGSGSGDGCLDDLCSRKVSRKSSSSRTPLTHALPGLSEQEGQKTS

[2] = biological target: T1, human GPC1 on the surface of …; assay: flow cytometry on TE8 cells, antibody titration, FITC anti-human IgG as secondary antibody
Protocol: (§1) The measurement was performed with FACS CantoII (BD) using the human/mouse chimeric anti-GPC1 antibody (clone 01a033) and the humanized anti-GPC1 antibody (clone T2) as primary antibodies at various concentrations and FITC labeled anti-human-IgG-FITC (Jackson Immuno Research, Catalog No. 109-095-098) as a secondary antibody, and the measurement data were analyzed using BD FACS Diva Software (BD).

[3] = biological target: T2, recombinant human GPC1 protein (R&D Systems) (human, UniProt P35052 24-530); assay: SPR (Biacore 8K); antibody captured by anti-human IgG (Fc) on a CM5 chip, recombinant human GPC1 flowed over
T2 construct: Bought recombinant protein (R&D Systems); also called human GPC-1 antigen; Glypican-1
T2 sequence: T1 sequence
Protocol: The mouse anti-human-GPC1 monoclonal antibody was humanized (subclass: IgG4), and the obtained twenty clones (T1, T2, T3, T7, T8, T10, T11, T22, T26, T28, T29, T31, T32, T33, T34, T36, T43, T56, T57, T59) were prepared. An anti-human IgG (Fc) was immobilized on an sCM5 sensor chip (GE Healthcare) using Human antibody capture kit (GE Healthcare), and the affinity of each of these clones to a recombinant human GPC1 protein (R&D Systems) was measured using Biacore (registered trademark) 8K (GE Healthcare).

[4] = biological target: T2, recombinant human GPC1 protein (R&D …); assay: SPR (Biacore 8K); antibody captured by anti-mouse-Fc antibody on the chip, human GPC-1 flowed over
Protocol: The binding affinity of the mouse antibody to human GPC-1 was measured through surface plasmon resonance technique (Biacore (registered trademark) 8K). An anti-mouse-Fc antibody was immobilized on a chip, and the mouse antibody (01a033) was flowed thereon and allowed to bind thereto. After washing, the human GPC-1 was flowed thereon, and the binding constant (Ka) and the dissociation constant (Kd) were measured.

MC38-mGPC1 [5] = biological target: T3, MC38-mGPC1; assay: flow cytometry on MC38-mGPC1 cells (the sheet names clone 01a033 and mIgG2a; paragraph 327 names clone T2 with FITC anti-human IgG)
T3 construct: also called mGPC1-MC38; mouse GPC1 stably expressed on the mouse colorectal cancer cell line MC38
T3 mouse Glypican-1: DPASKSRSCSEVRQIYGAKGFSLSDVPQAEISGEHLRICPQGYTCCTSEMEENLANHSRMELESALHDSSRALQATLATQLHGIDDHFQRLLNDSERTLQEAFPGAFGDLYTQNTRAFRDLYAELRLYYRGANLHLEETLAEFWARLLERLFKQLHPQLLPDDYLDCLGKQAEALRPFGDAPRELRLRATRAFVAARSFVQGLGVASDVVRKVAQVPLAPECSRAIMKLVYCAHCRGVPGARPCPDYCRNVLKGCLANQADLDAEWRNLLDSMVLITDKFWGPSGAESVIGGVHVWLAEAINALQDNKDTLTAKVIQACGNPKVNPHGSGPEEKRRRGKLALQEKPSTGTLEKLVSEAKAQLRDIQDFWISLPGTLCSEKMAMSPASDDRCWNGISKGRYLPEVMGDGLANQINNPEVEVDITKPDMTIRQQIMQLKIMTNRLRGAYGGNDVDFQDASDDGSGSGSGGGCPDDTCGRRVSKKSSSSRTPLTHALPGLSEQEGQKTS

[6] = biological target: T1, human GPC1 on the surface of …; assay: flow cytometry on BxPC3 cells, antibody titration, FITC anti-human IgG as secondary antibody
Protocol: as §1, with “In the FACS analysis using the antibody, cells of human pancreatic cancer cell line (BxPC-3) were used as GPC1-positive cells. The” for “The”, “the” for “the human/mouse chimeric anti-GPC1 antibody (clone 01a033) and the”, “T2) and the humanized GPC1-ADC (MMAE)” for “T2)”
The influence of conjugation of a payload with the humanized anti-GPC1 antibody (T2) on the antigen affinity was evaluated by analyzing the antibody concentration-dependent binding ability with FACS using GPC1 expression-positive BxPC3 cells.

[7] = biological target: T1, human GPC1 on the surface of …; assay: cell-based or functional assay; remark: listed apart in the source
[8] = biological target: T1, human GPC1 on the surface of …; assay: cell-based or functional assay; remark: listed apart in the source
MC38-mGPC1 [9] = biological target: T3, MC38-mGPC1; assay: cell-based or functional assay

B1: human/mouse chimeric anti-GPC1 antibody (clone 01a033) (antibody, human IgG4 S228P, kappa, V domains shown)
VH: QVQLKQSGPELVKPGASVKISCKASGYSFTGYYMHWVKQSPEKSLEWIGEINPSTGDTTYNQKFKAKATLTVDKSSSTAYMQLKSLTSEDSAVYYCAREKRDDGVFAYWGQGTLVTVSS
VL: DIVMSQSPKSMSMSVGERVALSCKASENVGTYVSWYQQKPEQSPKLLIYGASNRYTGVPDRFTGSGSATDFTLTISSVQAEDLADYYCGQSYSYPLTFGAGTKLELKR
notes: also called chimeric mouse antibody (01a033); anti-GPC-1 chimeric antibody (01a033)
B1 was tested, and the “IC50 of cytotoxicity on TE14 cells (ATP cell viability, 144 h) with MMAF-linked anti-human-IgG Fab as secondary antibody” value (“IC50 of cytotoxicity on TE14 cells” below) [1] was 0.071 nM, the Kd [2] was 2.38 nM and the Kd [3] was 10.2 nM. For the same binder, the koff [3] was 0.00309 s⁻¹ and the kon [3] was 302000 M⁻¹ s⁻¹.

B2: anti-GPC-1 mouse monoclonal antibody 01a033 (antibody, V domains shown)
VH: B1 VH
VL: DIVMSQSPKSMSMSVGERVALSCKASENVGTYVSWYQQKPEQSPKLLIYGASNRYTGVPDRFTGSGSATDFTLTISSVQAEDLADYYCGQSYSYPLTFGAGTKLELK
notes: Mouse monoclonal antibody; also called mouse antibody (01a033); mouse anti-GPC1 antibody (clone 01a033)
In the case of B2, the Kd [4] is reported as 31.6 nM, the koff [4] is reported as 0.00388 s⁻¹ and the kon [4] is reported as 123000 M⁻¹ s⁻¹. B2: binds (MC38-mGPC1 [5]).

B3: humanized anti-GPC1 antibody (clone T2) (antibody, human IgG4 S228P, kappa, V domains shown)
VH: QVQLVQSGAEVKKPGASVKVSCKASGYTFTGYYMHWVRQAPGQGLEWMGEINPSTGDTTYNQKFKARVTMTRDTSTSTVYMELSSLRSEDTAVYYCAREKRDDGVFAYWGQGTLVTVSS
VL: DIVMTQSPSFLSASVGDRVTITCRASQGISSYLVWYQQKPGKPPKLLIYSASVLQSGVPSRFSGRGYGTDFTLTISSLQPEDFATYYCQQSFSIPPVTFGGGTKVEIKR
notes: IgG; also called humanized anti-GPC1 antibody (T2); unlabeled antibody
For B3, the “IC50 of cytotoxicity on TE14 cells” value [1] was 0.0361 nM, the Kd [2] was 1.89 nM and the Kd [6] was 0.529 nM. The Kd [3] was 5.2 nM, the koff [3] was 0.00125 s⁻¹ and the kon [3] was 240000 M⁻¹ s⁻¹.

B4: humanized GPC1-ADC (MMAE) (antibody, V domains shown)
VH: B3 VH
VL: B3 VL
modifications: MC-vc-PAB-MMAE linked by maleimide to cysteines of the reduced interchain disulfide bonds; DAR 4.0 for the whole antibody
notes: also called humanized anti-GPC1-ADC; humanized anti-GPC1-ADC (MMAE)
In the case of B4, the “IC50 of growth inhibition of Detroit562 cells (in-vitro ADC assay, CellTiter-Glo, 144 h)” value [7] is reported as 0.724 nM, the “IC50 of growth inhibition of FaDu cells (in-vitro ADC assay, CellTiter-Glo, 144 h)” value [7] is reported as 0.3 nM and the “IC50 of growth inhibition of HeLa cells (in-vitro ADC assay, CellTiter-Glo, 144 h)” value [7] is reported as 0.259 nM. The “IC50 of growth inhibition of Ho-1-u-1 cells (in-vitro ADC assay, CellTiter-Glo, 144 h)” value [8] was 0.329 nM, the “IC50 of growth inhibition of KON cells (in-vitro ADC assay, CellTiter-Glo, 144 h)” value [8] was 0.153 nM and the “IC50 of growth inhibition of MC38-mGPC1 cells (in-vitro ADC assay)” value (MC38-mGPC1 [9]) was 2.29 nM. The Kd [6] was 0.57 nM.

B5: humanized anti-GPC1 monoclonal antibody clone T36 (antibody, human IgG4 S228P, kappa, V domains shown)
VH: B3 VH
VL: NIQMTQSPSSLSASVGDRVTITCQASQDISNYLNWYQQRPGKAPQLLIYGASNLERGVPSRFSGSGFGTDFTLTISSVQPEDFATYYCQQAKSYPLTFGGGTKVEIKR
notes: IgG
B5 was tested, and the “IC50 of cytotoxicity on TE14 cells” value [1] was 0.0459 nM, the Kd [3] was 9.8 nM and the koff [3] was 0.00227 s⁻¹. The kon [3] was 231000 M⁻¹ s⁻¹.

B6: humanized anti-GPC1 monoclonal antibody clone T57 (antibody, human IgG4 S228P, kappa, V domains shown)
VH: B3 VH
VL: EIVMTQSPSSLSASVGDRVTISCRTSQTIRHYLNWYQQKPGKAPKLLIYDASNLKTGVPSRFSGSGSGTSFTLTISSLQPDDFATYYCQQSYSTPRTFGQGTKVEIKR
notes: IgG
In the case of B6, the “IC50 of cytotoxicity on TE14 cells” value [1] is reported as 0.0459 nM, the Kd [3] is reported as 102 nM and the koff [3] is reported as 0.0135 s⁻¹. The kon [3] was 132000 M⁻¹ s⁻¹.

B7: humanized anti-GPC1 monoclonal antibody clone T56 (antibody, human IgG4 S228P, kappa, V domains shown)
VH: B3 VH
VL: DIVMTQSPSTLSASVGDRVTIICRASQSIGPWLAWYQQKSGKAPKLLIYGASNLQSGVPSRFSGSGYGTDFTLTISSLQPEDFATYYCQQTSSAPFTFGPGTKVDIKR
notes: IgG
With B7 the “IC50 of cytotoxicity on TE14 cells” value [1] was 0.0501 nM, the Kd [3] was 6.93 nM and the koff [3] was 0.0018 s⁻¹. The kon [3] was 259000 M⁻¹ s⁻¹.
